Measurements taken from patent publication US12686712B2, “Antibody, related use, pharmaceutical composition including method for diagnosing fungal infections, fungal infection diagnosis kit and method for treating fungal infections” (priority 2020, dated 2026).
Values joined by “and” are separate entries in the source; they are usually repeats but may differ in a detail not shown here. Equal entries are not always repeated.

Columns and labels:
C. neoformans [1] = experiment: Minimum inhibiting concentration (MIC) assay, alone or in association with AmB or FLC; assay type: cell-based, Cryptococcus neoformans; settings: 48 hours at 37° C.
Method: C. neoformans cells were cultivated in RPMI 1640 buffered with MOPS in pH 7 at 10^5 cell/well density in 96-well plates in 200 μl final volume. Systems were supplemented with AcM at concentration (25 to 0.05 μg/ml), AmB (1 to 0.1 lμg/ml) or FLC (8 to 2 μg/ml), alone or in association. After 48 hours of incubation at 37° C. under agitation, cells were suspended by pipetting for spectrophotometer reading at 592 nm wavelength.
AcMs fungicide activity was tested through CIM test. […] It was assessed if AcMs association with AmB or FLC would trigger antifungal effects in sub-inhibiting concentrations, thus 1 μg/ml concentrations of AmB and 4 and 2 μg/ml to FLC in combination with AcMs different concentrations. To assess whether there was combining effect of AcMs with drug, it was used as drug action base in isolate form.

C. neoformans strain H99 = experiment: Survival trial, lethal i.p. challenge; assay type: in vivo, Balb/C line mice; settings: AmB standard dose 2.5 mg/kg alone; data not provided
Method: Balb/C line mice (n=7) were lethally challenged via i.p. with 10^5 cells in PBS of C. neoformans (H99) and treated 2 hours later with 100 μl of AmB (2.5 mg/kg and 0.25 mg/kg), 100 μl of AcM (85 μg/ml) and 100 μl of AcM and AmB combined solution (0.25 mg/kg). Control animals were challenged only by C. neoformans (H99) or only with 100 μl of a solution of PBS, AmB (2.5 mg/kg) or AcM (85 μg/ml) without fungus (adapted from Liedke et al.). Survival rate was achieved and analysis was extended up to 90 days after infection, presenting statistical value with p<0.005.
Mice were lethally challenged with inoculant i.p. of 1×10^5 cells of yeast C. neoformans strain H99. After 2 hours, they were treated with PBS (negative control), 85 μg/animal of AcM (HC6/DD11) in isolate form, 0.25 or 2.5 mg/kg of AmB in isolate form, and in synergic form, AcM keeping test concentrations. Treatments were repeated for another two times, with 10-day interval.

C. neoformans [2] = experiment: Melanization trial (L-DOPA); assay type: cell-based, Cryptococcus neoformans
Method: C. neoformans cultivation was performed as paragraph and cellular suspension (1×10^6 cells/ml) was cultivated for 72 hours in minimum media supplemented with 1 mM of L-DOPA in 96-well plate of U-shape bottom. Antibodies HC6/DD11 and AF1/CC5 were added to minimum media within 25 to 0.05 μg/ml concentration range. The plate was centrifuged and pigment development quantification was defined densitometrically upon image scanning by iBright FL1000 Invitrogen equipment.
AcM HC6/DD11 e AF1/CC5 established concentrations were 0.2 to 25 μg/ml. L-DOPA was used with substrate to melanization.
Pigmentation in C. neoformans was assessed through brown to black sedimentation observation in 96-well plate bottom. To document pigmentation or inhibition, plates were photographed over white surfaces (clear bottom), to enable differentiation between pigmented and non-pigmented populations. It shall be noted that every AcM dose presents fungal growth, however with negative pigmentation or partial inhibition.

Candida albicans = experiment: Immunofluorescence of AcM anti-chitooligomer against intact cells; assay type: binding; settings: AcM 25 μg/mL, 1 h at 37° C.; anti-IgM Alexa 568; calcofluor
Method: Fungal cells (10^6 cells)) were fastened (cacodylate paraformolaldehyde buffer 4%; 30 min) and blocked later (PBS/BSA 1%; 1 hour). Then, they were incubated with AcM anti-chitooligomer(25 μg/mL; 1 h at 37° C.) After washing with PBS, cells were incubated with mouse anti-IgM antibody conjugated at Alexa 568 (SIGMA; 1:1000). After PBS washing, cells were incubated with 25 μM of white calcofluor (Invitrogen) and washed again. Cellular suspensions were assembled in glass blades and assessed under microscope Olympus AX70, coupled to camera system (QImaging Retiga 1300) and assessed in QCapture suite V2.46 software.
From reliable and ELISA and Dot Blot trials, biological activity validation tests. Thus, AcMs were used through immunofluorescence (IF), using the pathogen Candida albicans as template. AcMs were efficient at fungal cellular wall labeling, showing the same profile whenever standard marker is used (lectin), data not provided.

[3] = tested on: acapsular mutant of C. neoformans Cap67; experiment: Biofilm development, XTT reduction trial; assay type: cell-based, Cryptococcus neoformans; settings: AcM 25 μg/ml, 48 hours at 37° C., vs fungus without treatment, p<0.05
Method: (§1) C. neoformans (H99 and Cap67) and Candida albicans were cultivated in Sabouraud media for 24 hours at 30° C. Cellular suspensions were centrifuged for 5 minutes at 3000 g, washed 3 times in PBC and suspended in minimum media (20 mg/ml thiamin, 30 mm glucose, 26 mM glycine, 20 mM MgSO4, and 58.8 mM KH2PO4). Then, they were added to 96-well plates (100 μl/well—1×10^6 células/ml) and cultivated for 48 hours at 37° C. at presence of AcM (HC6/DD11 and AF1/CC5) and AcM anti-GXM 18B7 (only to H99) at 25 μg/ml concentration, keeping under agitation for 30 minutes, for AcM total homogenization with fungi. As control, drug AmB was used at 1 μg/ml concentration.
(§2) Two analysis systems were performed: in the first, cells were washed, so that non-adhering cells were removed and only cells bonded to biofilm under development remained; in the second system, cells were not washed and all cells adhered or not to substrate were quantified.
(§3) Viable cell metabolic activity in both trials was assessed by the method based on decrease of XTT (2-methoxy-4-nitro-5-sulfophenyl)-5-[(phenylamino) carbonyl]-2H-tetrazolium hydroxide) in spectrophotometer at 492 nm of wavelength.
(§4) AcMs were tested (25 μg/ml) against three fungus species (C. albicans, C. neoformans—H99—and acapsular mutant of C. neoformans—Cap67), with control by AcM anti-GXM 18B7 (25 μg/ml) only to H99. In the first assay (FIGS. 14A and B), cellular suspensions were washed to remove non-adhering cells to substrate. […] In second assay (FIGS. 14C and D), cellular suspensions were not washed, and again AcM inhibited biofilm development (p<0.05) compared to cell not treated with antibodies. In both assays, cell growth was observed.

C. albicans [4] = experiment: Biofilm development, XTT reduction trial; assay type: cell-based, Candida albicans; settings: AcM 25 μg/ml, 48 hours at 37° C., vs fungus without treatment, p<0.05
Method: as §1, §2, §3, §4

C. neoformans H99 = experiment: Biofilm development, XTT reduction trial; assay type: cell-based, Cryptococcus neoformans; settings: AcM 25 μg/ml, 48 hours at 37° C., vs fungus without treatment, p<0.05
Method: as §1, §2, §3, §4
AcMs were compared to AcM anti-GXM 18B7 concerning biofilm development inhibition.

C. neoformans (H99) = experiment: Indirect ELISA against intact cells using poly-L-Lysine (PL); assay type: binding, Cryptococcus neoformans; settings: 10^4 and 10^5 cells/ml
Method: (§5) For this test, C. neoformans (H99), Candida albicans, Giardia lamblia, human lung line cell A549 (ATCC), Escherichia coli and Staphylococcus aureus. Cells were washed in PBS three times and suspended at 10^7 cell/ml density in poly-L-Lysine (5 μg/ml in PBS) for adherence at night at 4° C. The next day, plates were blocked with PBS/BSA 5% and incubated for 1 hour at 37° C., then they are incubated for 1 hour at 37° C. with anti-chitooligomer AcM at 50 μg/ml concentration and diluted at 5 μg/ml. Then, washing with PBS/Tween 0.05% was performed for 3 times and anti-IgM murine peroxidase was added diluted 1:5000 and incubated for 2 hours at 37° C. Plates were washed again and TMB was added and incubated for 30 minutes at 37° C.
(§6) Reaction was stopped with HCl 1 N and reading with spectrophotometer at 450 nm. After this trial, seriated dilutions were performed at density of cells 10^7 until 10 cells/ml to fungi and 10^7 until 10^4 cells/ml to other cellular types and tested of AcM anti-chitooligomer at 25 μg/ml concentration, followed by the same procedures abovementioned. […]
(§7) In this trial, 10^7 cell/ml of C. albicans were used to perform an absorbance curve, in which it was observed that there was a 25 μg/ml concentration reliable signal of both AcM, as above such value the curve starts to enter in plateau, as provided in FIG. 9. […]

C. albicans [5] = experiment: as above; assay type: binding, Candida albicans; settings: 10^4 and 10^5 cells/ml
Method: as §5, §6, §7

Row | Molecule | concentration with fungicide effect (control drug alone) (C. neoformans [1]) | death of infected animals (C. neoformans strain H99) | melanization in lower concentrations (C. neoformans [2]; concentrations lower than 1.6 μg/ml, p>0.05) | AcM concentration with partial inhibition of melanization/pigmentation (C. neoformans [2]; series 25 to 0.2 μg/ml, 72 hours, 1 mM L-DOPA, p<0.05) | fungal cellular wall labeling by immunofluorescence (Candida albicans) | biofilm development (XTT reduction) ([3]; non-washed cells) | biofilm development (XTT reduction) ([3]; washed cells) | biofilm development (XTT reduction) (C. albicans [4]; non-washed cells) | biofilm development (XTT reduction) (C. albicans [4]; washed cells) | biofilm development (XTT reduction) (C. neoformans H99; non-washed cells) | biofilm development (XTT reduction) (C. neoformans H99; washed cells) | ELISA signal in cell saturation curve (C. neoformans (H99)) | ELISA signal in cell saturation curve (C. albicans [5])
1 | C[C@@H]1[C@H](O)[C@@H](C)/C=C/C=C/C=C/C=C/C=C/C=C/C=C/[C@H](O[C@@H]2O[C@H](C)[C@@H](O)[C@H](N)[C@@H]2O)C[C@@H]2O[C@](O)(C[C@@H](O)C[C@@H](O)[C@H](O)CC[C@@H](O)C[C@@H](O)CC(=O)O[C@H]1C)C[C@H](O)[C@H]2C(=O)O [AmB, amphotericin polyene B, reference compound] | 1 µg/mL | did not die | – | – | – | – | – | – | – | – | – | – | –
2 | OC(Cn1cncn1)(Cn1cncn1)c1ccc(F)cc1F [FLC, Fluconazole] | 8 µg/mL | – | – | – | – | – | – | – | – | – | – | – | –
3 | AF1/CC5: murine IgM monoclonal antibody against chitooligomers (chitotriose); VH SEQ ID NO: 19, VL SEQ ID NO: 20 (antibody, listed as Mus musculus, V domains shown) VH: STGQVKLEESGGGLVQPGGSMKLSCAASGFTFSDAWMDWVRQSPEKGLEWVAEIRSKANNHATYYAESVKGRFTISRDDSKSSVYLQMNSLRAEDTGIYYCTRHRYDGFDYWGQGTTLTFP VL: DYFLASQGEVTMTCSASSSISYMHWYQQKPGTSPKRWIYDTSKLASGVPARFSGSGSGTSYSLTISSMEAEDAATYYCHQRSSYPCTFGAGTKLELKRADAAPTVSLETKTS | – | – | not significant inhibition | 3.2 µg/mL and 1.6 µg/mL | characteristic polar label | reduced biofilm development significantly | reduced biofilm development significantly | reduced biofilm development significantly | reduced biofilm development significantly | reduced biofilm development significantly | reduced biofilm development significantly | a plateau to both cells was achieved | a plateau to both cells was achieved
